Results on 11 molecules are retold here after patent publication US20170182124A1, “FGF21 Derivatives and Uses Thereof” (Novo Nordisk A/S, priority 2014, published 2017).

This test concerns the target FGF receptor/BKL complex. The test is described as follows: FGF receptor potency in an Erk phosphorylation assay in HEK293 overexpressing human BKL. The class given is cell-based. The note with it: for EC50: HEK293/BKL cells, pERK after 12 minutes. Here is the method:
In order to test the binding of the FGF21 derivatives to albumin, the assay was performed in the absence of serum albumin as well as in the presence of human serum albumin (HSA) (0.1% final assay concentration). An increase in EC50 value (decrease in potency) in the presence of serum albumin for FGF21 derivatives would indicate binding to serum albumin and represents a method to predict a protracted pharmacokinetic profile of the test substance in animal models. MetFGF21 (SEQ ID NO:2) is included for reference.
HEK293 cells endogenously express several FGF receptors, including FGFR1c, FGFR3c and FGFR4. These cells are unresponsive to FGF21 until transfected with the co-receptor beta-klotho (BKL). Activation of the FGF receptor/BKL complex leads to activation of the MAPK/ERK signalling pathway and phosphorylation of ERK. The level of phosphorylated ERK (pERK) at a given time point increases with increasing concentrations of FGF21. As described below the level of pERK is measured after 12 minutes of stimulation with a range of FGF21 analogue concentrations.
The HEK293/beta-klotho cells are seeded with 30.000 cells/well in 96 well plates in DMEM (BioWhittaker #BE12-604F/U1), supplemented with 10% FCS (Gibco #16140-071), 1% penicillin/streptomycin (Gibco #15140), 100 µg/ml Hygromycin B, (Calbiochem, # 400052). Two days later and 2 hours before addition of compound the cell medium is exchanged with 100 ∞l basal medium (DMEM (BioWhittaker #BE12-604F/U1)). The FGF21 analogues are diluted in assay medium (DMEM (BioWhittaker #BE12-604F/U1) supplemented with 0.02% Tween20), warmed to 37° C., added to the cells (100 μl) and incubated at 37° C. for 12 minutes. The FGF21 derivatives were also tested in the presence of 0.1% HSA (Sigma—A1887). All medium is quickly removed and 50 μl lysis buffer is added pr. well. The plate is shaken for 5 minutes and the lysate is ready for measurement of pERK. pERK is measured in 384 well plates with the AlphaScreen SureFire kit (PerkinElmer #TGRES10K). This kit is based on ERK and pERK specific antibodies coupled to donor and acceptor beads. The presence of pERK will bring acceptor and donor beads in close proximity and a signal is generated that is read on EnVision. The data are analysed using GraphPad Prism and the potency of the FGF21 proteins is described as absolute EC50 value.

Changes are numbered by the printed parent chain. Read-outs that look alike come from different tables or passages of the source.

Sequence of FGF receptor/BKL complex (Q86Z14 whole entry, one chain of several): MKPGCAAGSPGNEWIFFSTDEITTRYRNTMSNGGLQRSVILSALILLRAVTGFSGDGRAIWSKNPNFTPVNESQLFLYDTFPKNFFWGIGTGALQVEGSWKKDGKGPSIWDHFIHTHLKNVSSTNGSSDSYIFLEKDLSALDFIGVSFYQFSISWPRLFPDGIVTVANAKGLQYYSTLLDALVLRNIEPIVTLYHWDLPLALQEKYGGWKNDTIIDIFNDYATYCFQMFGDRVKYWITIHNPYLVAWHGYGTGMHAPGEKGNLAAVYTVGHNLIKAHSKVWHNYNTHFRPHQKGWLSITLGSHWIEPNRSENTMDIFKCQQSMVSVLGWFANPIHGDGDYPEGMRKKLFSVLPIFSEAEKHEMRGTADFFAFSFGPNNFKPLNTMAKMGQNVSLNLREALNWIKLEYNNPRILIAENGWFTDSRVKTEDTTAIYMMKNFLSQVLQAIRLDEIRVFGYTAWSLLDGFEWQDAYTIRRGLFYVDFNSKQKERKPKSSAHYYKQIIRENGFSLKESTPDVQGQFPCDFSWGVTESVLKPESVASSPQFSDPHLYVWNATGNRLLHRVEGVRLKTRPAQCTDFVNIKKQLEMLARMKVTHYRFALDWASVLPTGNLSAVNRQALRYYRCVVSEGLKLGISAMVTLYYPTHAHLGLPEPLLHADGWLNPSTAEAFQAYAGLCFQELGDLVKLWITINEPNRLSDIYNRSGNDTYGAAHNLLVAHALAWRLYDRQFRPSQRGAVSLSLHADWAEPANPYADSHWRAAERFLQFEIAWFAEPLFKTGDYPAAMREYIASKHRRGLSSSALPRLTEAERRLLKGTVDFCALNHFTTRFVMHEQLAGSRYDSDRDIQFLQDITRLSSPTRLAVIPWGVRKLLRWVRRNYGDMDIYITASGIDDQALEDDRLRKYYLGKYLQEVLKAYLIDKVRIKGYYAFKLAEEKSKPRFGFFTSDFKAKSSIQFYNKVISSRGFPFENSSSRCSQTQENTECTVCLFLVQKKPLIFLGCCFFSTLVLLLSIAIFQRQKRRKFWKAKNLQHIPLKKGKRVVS

Usually EC50 stands for the concentration at which the effect is half-maximal. In the case of “S{Beta-168}-[2-[2-[[2-[2-[2-[[2-[2-[2-[[(4S)-4-carboxy-4-(13-carboxytridecanoyl-amino)butanoyl]amino]ethoxy]ethoxy]acetyl]amino]ethoxy]ethoxy]acetyl]amino]-ethylamino]-2-oxoethyl]-Ala[Gln121,Cys168]FGF21 [Compound 34]”, the concentration giving a half-maximal response (EC50) by setting is: (absence of HSA, read-out: EC50) 667 nM; (presence of 0.1% HSA, read-out: EC50 (0.1% HSA)) 4260 nM.

B1: Ala[Gln121, Cys168]FGF21 (protein)
chain: AHPIPDSSPLLQFGGQVRQRYLYTDDAQQTEAHLEIREDGTVGGAADQSPESLLQLKALKPGVIQILGVKTSRFLCQRPDGALYGSLHFDPEACSFRELLLEDGYNVYQSEAHGLPLHLPGQKSPHRDPAPRGPARFLPLPGLPPALPEPPGILAPQPPDVGSSDPLSCVGPSQGRSPSYAS
modifications: N-terminal Ala
For B1, the EC50 (absence of HSA, read-out: EC50) was 492 nM. Moreover, the “potency in HEK293/BKL cells compared with MetFGF21 or corresponding analogue (in words)” value (absence of HSA) is “decreased potency”.

B2: Ala[Gln121, Leu168, Cys174]FGF21 (protein)
chain: B1 chain with C169L, R176C
modifications: N-terminal Ala
notes: FGF21 analogue
Regarding B2, where the note is “absence of HSA, read-out: EC50”, the EC50 came to 5 nM.

B3: Ala[Gln121, Leu168, Cys170]FGF21 (protein)
chain: B1 chain with C169L, G171C
modifications: N-terminal Ala
For the molecule B3, the EC50 (absence of HSA, read-out: EC50) stood at 7 nM.

B4: Ala[Gln121, Leu168, Cys169]FGF21 (protein)
chain: B1 chain with C169L, V170C
modifications: N-terminal Ala
Regarding B4, for the setting “absence of HSA, read-out: EC50”, the half-maximal effective concentration (EC50) was 22 nM.

B5: Ala[Gln121, Cys167, Leu168,]FGF21 (protein)
chain: B1 chain with S168C, C169L
modifications: N-terminal Ala
Take B5: under “absence of HSA, read-out: EC50”, the EC50 stood at 4 nM.

B6: Ala[Gln121, Leu168, Cys171]FGF21 (protein)
chain: B1 chain with C169L, S173C
modifications: N-terminal Ala
notes: FGF21 analogue
In the case of B6, the EC50 (absence of HSA, read-out: EC50) is 8 nM.

B7: Ala[Gln121, Leu168, Cys177]FGF21 (protein)
chain: B1 chain with C169L, P178C
modifications: N-terminal Ala
As to B7, the EC50 (absence of HSA, read-out: EC50) turned out to be 416 nM.

B8: Ala[Gln121, Leu168, Cys173]FGF21 (protein)
chain: B1 chain with C169L, G175C
modifications: N-terminal Ala
notes: FGF21 analogue
Regarding B8, for the setting “absence of HSA, read-out: EC50”, the concentration giving a half-maximal response (EC50) was 4 nM.

B9: Ala[Gln121, Leu168, Cys172]FGF21 (protein)
chain: B1 chain with C169L, Q174C
modifications: N-terminal Ala
notes: FGF21 analogue
With B9, under “absence of HSA, read-out: EC50”, the concentration for a half-maximal effect (EC50) stood at 5 nM.

B10: Ala[Gln121, Leu168, Cys175]FGF21 (protein)
chain: HPIPDSSPLLQFGGQVRQRYLYTDDAQQTEAHLEIREDGTVGGAADQSPESLLQLKALKPGVIQILGVKTSRFLCQRPDGALYGSLHFDPEACSFRELLLEDGYNVYQSEAHGLPLHLPGQKSPHRDPAPRGPARFLPLPGLPPALPEPPGILAPQPPDVGSSDPLSLVGPSQGCSPSYAS
notes: FGF21 analogue
On to B10, for which the concentration giving a half-maximal response (EC50) (absence of HSA, read-out: EC50) was 11 nM.
